Experimental data as given in patent US7276258B2, “Herbal extract and compound lupinoside and its analogues as anti-diabetic type II drugs from plant Pueraria tuberosa” (Council of Scientific & Industrial Research, priority 2004, dated 2007).

Target: T1, insulin receptor (Mus musculus, UniProt P15208)
T1 construct: endogenous in cells; host or cells: 3T3-L1 adipocytes (membrane fraction solubilized with lithium diiodosalicylate / 0.1% Triton X-100)
Test: Scatchard analysis of 125I-insulin binding to solubilized receptor preparation from 3T3L1 adipocytes
Details: insulin alone
Protocol: Radiolabeled insulin binding to solubilized receptor preparations. Control and FFA treated 3T3L1 adipocytes were first washed thrice with 0.02M Phosphate Buffer (pH-7.4) containing 0.14M NaCl and then resuspended in Lysis Buffer (20 mM Tris-HCl, 40 mM NaCl, 5 mM EDTA, 5 mM Iodoacetamide, pH-8.4) supplemented with protease inhibitors (1 μg/ml aprotinin, 1 μg/ml pepstatin, 1 μg/ml leupeptin, 2 mM phenyl methyl sulfonyl fluoride and 1 μg/ml trypsin inhibitor). These cells were then freeze thawed thrice at −70° C. and centrifuged at 10,000 rpm for 15 min at 4° C. The pellet collected was resuspended in Lysis Buffer, sonicated and again centrifuged at 10,000 rpm for 15–20 min at 4° C. The supernatant was dialysed overnight against 10 mM Tris-HCl (pH-7.4) buffer and volume reduced by lyophilisation. […]
Scatchard Analysis. […] After the termination of the incubations, free and bound radioactivity was separated by the addition of 500 μl of 0.5% chilled polyethylene glycol (PEG; MW 6000). […] The radioactivity in the final pellet was measured in a ^125I-gamma counter. The specific binding was calculated by subtracting non-specific binding from total binding. Data were then analyzed by Scatchard analysis to determine the affinity and capacity of insulin receptor binding in the presence or absence of palmitic acid (see FIG. 1b).

T1 sequence (P15208 28-748 limits assumed): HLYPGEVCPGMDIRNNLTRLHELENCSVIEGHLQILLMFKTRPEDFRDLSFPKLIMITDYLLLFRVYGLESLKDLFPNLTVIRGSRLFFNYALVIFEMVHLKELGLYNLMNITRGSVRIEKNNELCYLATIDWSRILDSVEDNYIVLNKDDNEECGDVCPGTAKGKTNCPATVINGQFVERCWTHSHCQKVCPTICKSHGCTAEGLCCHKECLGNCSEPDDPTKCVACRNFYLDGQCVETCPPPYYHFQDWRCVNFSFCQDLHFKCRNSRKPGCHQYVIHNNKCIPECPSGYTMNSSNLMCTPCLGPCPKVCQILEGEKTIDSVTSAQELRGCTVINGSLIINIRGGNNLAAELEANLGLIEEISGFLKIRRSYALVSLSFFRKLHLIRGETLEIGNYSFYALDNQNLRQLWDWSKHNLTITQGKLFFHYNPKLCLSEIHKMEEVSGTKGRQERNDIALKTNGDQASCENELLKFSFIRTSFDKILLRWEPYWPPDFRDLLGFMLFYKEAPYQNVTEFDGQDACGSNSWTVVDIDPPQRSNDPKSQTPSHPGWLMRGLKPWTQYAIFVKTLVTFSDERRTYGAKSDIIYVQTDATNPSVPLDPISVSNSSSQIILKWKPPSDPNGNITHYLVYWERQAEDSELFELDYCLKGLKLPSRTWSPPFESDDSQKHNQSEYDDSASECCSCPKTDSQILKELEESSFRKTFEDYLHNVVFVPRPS
T1 sequence (P15208 753-1372 partner limits assumed): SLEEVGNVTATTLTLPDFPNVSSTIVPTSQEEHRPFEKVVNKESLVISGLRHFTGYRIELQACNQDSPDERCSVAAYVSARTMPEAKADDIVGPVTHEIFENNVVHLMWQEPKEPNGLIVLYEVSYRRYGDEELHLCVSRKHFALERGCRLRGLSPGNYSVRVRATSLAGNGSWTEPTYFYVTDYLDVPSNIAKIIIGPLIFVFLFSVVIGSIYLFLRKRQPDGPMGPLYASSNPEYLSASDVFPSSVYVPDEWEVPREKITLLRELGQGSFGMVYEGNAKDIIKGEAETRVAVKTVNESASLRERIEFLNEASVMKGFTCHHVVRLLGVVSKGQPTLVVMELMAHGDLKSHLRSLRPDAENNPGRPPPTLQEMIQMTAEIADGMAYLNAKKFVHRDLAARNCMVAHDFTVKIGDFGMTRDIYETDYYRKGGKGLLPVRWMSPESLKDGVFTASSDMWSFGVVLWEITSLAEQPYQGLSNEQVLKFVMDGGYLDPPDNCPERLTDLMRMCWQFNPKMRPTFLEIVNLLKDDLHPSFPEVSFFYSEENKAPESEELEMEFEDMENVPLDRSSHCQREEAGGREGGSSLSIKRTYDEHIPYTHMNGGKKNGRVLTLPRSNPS

Ka of insulin binding to solubilized receptor: 1.6e+09 M⁻¹
Substance: insulin: recombinant human insulin, radiolabelled with 125I for binding
